The values below come from patent publication US20210301005A1 (Genentech, published 2021).

Assay [1] deals with T1, human TGFβ2, mature receptor-binding domain (human, UniProt P09858 303-414 (pig entry), The mature TGFβ2 is a disulfide-linked homodimer of this 112-residue chain. The 4A11 epitope spans both monomers (p-1207).).
T1 sequence: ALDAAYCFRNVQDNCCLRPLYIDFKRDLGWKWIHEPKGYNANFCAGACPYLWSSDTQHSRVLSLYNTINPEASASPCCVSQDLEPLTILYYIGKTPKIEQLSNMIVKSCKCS
Nature of the assay: cell-based or functional assay.

In assay [2] the target is T2, human TGFβ3, mature dimeric form (human, UniProt P10600 301-412).
T2 sequence: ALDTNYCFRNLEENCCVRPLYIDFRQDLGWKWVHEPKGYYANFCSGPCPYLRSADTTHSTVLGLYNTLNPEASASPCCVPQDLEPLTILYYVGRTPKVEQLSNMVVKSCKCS
Nature of the assay: cell-based or functional assay.

Assay [3] addresses human TGFβ1, mature receptor-binding domain (human, UniProt P01137 279-390). Nature of the assay: cell-based or functional assay.
The target of assay [4] is T1, human TGFβ2, mature receptor-binding …. Briefly: BIAcore T200. As to the method: (§1) For binding affinity determinations of all humanized 2A10 antibodies, Surface Plasmon Resonance (SPR) measurement with a BIAcore™-T200 instrument was used. Briefly, series S CM5 biosensor chip with protein A was first applied to capture each humanized 2A10 variant to achieve approximately 100 response units (RU) on each flow cell, following by injection of 3-fold serial dilutions of human TGFβ1, TGFβ2 or TGFβ3 (0.02 nM to 5 nM) in HBS-EP buffer (0.01M HEPES pH 7.4, 0.15M NaCl, 3 mM EDTA and 0.05% v/v surfactant P20) at 25° C. with a flow rate of 50 μl/min for kinetics measurement. Association rates (ko.) and dissociation rates (koff) were calculated using a simple one-to-one Langmuir binding model (BIAcore T200 evaluation software version 2.0) to determine the equilibrium dissociation constant (KD), which was calculated as the ratio koff/kₒₙ.
(§2) Binding affinity determinations of all humanized 4A11 antibodies were performed using SPR measurement with a BIAcore™-T200 instrument, as described above in Example 6 ([…]).
(Surface plasmon resonance follows binding to a sensor surface in real time, without labels.)

Assay [5] concerns the target T2, human TGFβ3, mature dimeric form. Nature of the assay: BIAcore T200. As to the method: as §1, §2
The target in assay [6] is T1, human TGFβ2, mature receptor-binding …. Nature of the assay: cell-based or functional assay. The source holds these as a separate data set.

Some results are limits rather than exact numbers.

As a reminder, the Kd is the free concentration of one partner at which half of the binding sites on the other are occupied at equilibrium, for simple one-to-one binding. A high value points to lower affinity.

human TGFβ1, mature receptor-binding domain, sequence (P01137 279-390 limits assumed): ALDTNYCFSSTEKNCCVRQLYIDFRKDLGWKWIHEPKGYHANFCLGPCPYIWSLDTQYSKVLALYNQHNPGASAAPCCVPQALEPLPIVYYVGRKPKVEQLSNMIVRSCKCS

B1: h4A11.v7.8 (antibody, human IgG1, kappa, N297G)
heavy: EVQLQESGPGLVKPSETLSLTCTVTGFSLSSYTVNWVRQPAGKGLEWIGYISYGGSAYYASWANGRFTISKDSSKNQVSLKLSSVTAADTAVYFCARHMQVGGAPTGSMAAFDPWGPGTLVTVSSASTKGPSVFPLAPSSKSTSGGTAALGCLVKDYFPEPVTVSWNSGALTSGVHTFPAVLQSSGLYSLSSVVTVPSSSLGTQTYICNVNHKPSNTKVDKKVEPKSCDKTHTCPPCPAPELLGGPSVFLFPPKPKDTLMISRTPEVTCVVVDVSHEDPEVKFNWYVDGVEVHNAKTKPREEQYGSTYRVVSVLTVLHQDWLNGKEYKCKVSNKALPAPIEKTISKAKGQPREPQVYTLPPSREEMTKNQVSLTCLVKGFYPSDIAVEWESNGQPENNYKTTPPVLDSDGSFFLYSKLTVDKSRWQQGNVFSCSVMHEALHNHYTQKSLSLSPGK
light: EAVLTQSPGTLSLSPGERATLSCQSSQSVYNNNYLSWFQQKPGQPPRLLIYGASTLTSGVPDRFSGSGSGTDFTLTISRLEPEDFAVYYCAGGYSGSSDKYAFGGGTKVEIKRTVAAPSVFIFPPSDEQLKSGTASVVCLLNNFYPREAKVQWKVDNALQSGNSQESVTEQDSKDSTYSLSSTLTLSKADYEKHKVYACEVTHQGLSSPVTKSFNRGEC
As for B1, the “HEKBlue TGFβ blocking IC50” value in assay [1] is 0.06 nM; in assay [2], 0.03 nM; in assay [3], more than 200 nM. Moreover, the results for the Kd in assay [4] and in assay [5] were 0.0045 nM and 0.0053 nM, respectively.

B2: h4A11.v7.1 (antibody, human IgG1, kappa, N297G)
heavy: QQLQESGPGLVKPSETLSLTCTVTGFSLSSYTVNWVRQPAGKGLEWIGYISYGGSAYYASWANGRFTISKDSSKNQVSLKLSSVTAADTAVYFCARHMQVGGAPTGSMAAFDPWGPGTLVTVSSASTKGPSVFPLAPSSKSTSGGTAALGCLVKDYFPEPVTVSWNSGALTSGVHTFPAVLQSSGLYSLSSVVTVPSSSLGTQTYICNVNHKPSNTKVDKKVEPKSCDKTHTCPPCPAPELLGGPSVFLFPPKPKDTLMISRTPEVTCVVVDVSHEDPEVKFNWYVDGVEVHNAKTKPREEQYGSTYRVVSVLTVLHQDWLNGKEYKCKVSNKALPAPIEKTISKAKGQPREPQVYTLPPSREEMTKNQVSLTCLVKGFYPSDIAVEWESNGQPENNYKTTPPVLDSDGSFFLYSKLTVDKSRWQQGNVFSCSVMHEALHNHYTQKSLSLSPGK
light: EAVLTQSPGTLSLSPGERATLSCQSSQSVYNNNYLSWFQQKPGQPPRLLIYGASTLTSGVPDRFSGSGSGTDFTLTISRLEPEDFAVYYCAGGYSGSSDKYAFGGGTKVEIKRTVAAPSVFIFPPSDEQLKSGTASVVCLLNNFYPREAKVQWKVDNALQSGNSQESVTEQDSKDSTYSLSSTLTLSKADYEKHKVYACEVTHQGLSSPVTKSFNRGEC
For B2, the figures for the “HEKBlue TGFβ blocking IC50” value in assay [1], in assay [2] and in assay [3] were 0.09 nM, 0.03 nM and more than 33 nM, respectively.

B3: h4A11.v7.3 (antibody, human IgG1, kappa, N297G)
heavy: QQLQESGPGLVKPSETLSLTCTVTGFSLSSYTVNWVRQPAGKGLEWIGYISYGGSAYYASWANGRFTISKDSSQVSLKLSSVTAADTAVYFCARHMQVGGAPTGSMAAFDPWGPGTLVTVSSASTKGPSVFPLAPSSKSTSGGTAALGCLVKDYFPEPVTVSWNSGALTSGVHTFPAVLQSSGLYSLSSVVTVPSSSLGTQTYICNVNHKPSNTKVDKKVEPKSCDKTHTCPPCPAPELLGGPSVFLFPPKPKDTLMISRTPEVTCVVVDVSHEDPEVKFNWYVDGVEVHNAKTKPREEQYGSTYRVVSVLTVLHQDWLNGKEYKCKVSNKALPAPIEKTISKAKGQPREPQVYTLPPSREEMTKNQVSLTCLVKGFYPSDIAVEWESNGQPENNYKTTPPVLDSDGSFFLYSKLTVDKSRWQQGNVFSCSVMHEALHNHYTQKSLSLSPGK
light: EAVLTQSPGTLSLSPGERATLSCQSSQSVYNNNYLSWFQQKPGQPPRLLIYGASTLTSGVPDRFSGSGSGTDFTLTISRLEPEDFAVYYCAGGYSGSSDKYAFGGGTKVEIKRTVAAPSVFIFPPSDEQLKSGTASVVCLLNNFYPREAKVQWKVDNALQSGNSQESVTEQDSKDSTYSLSSTLTLSKADYEKHKVYACEVTHQGLSSPVTKSFNRGEC
As for B3, the “HEKBlue TGFβ blocking IC50” value is 0.03 nM in assay [1], 0.03 nM in assay [2] and more than 33 nM in assay [3].

B4: h4A11.v7.2 (antibody, human IgG1, kappa, N297G)
heavy: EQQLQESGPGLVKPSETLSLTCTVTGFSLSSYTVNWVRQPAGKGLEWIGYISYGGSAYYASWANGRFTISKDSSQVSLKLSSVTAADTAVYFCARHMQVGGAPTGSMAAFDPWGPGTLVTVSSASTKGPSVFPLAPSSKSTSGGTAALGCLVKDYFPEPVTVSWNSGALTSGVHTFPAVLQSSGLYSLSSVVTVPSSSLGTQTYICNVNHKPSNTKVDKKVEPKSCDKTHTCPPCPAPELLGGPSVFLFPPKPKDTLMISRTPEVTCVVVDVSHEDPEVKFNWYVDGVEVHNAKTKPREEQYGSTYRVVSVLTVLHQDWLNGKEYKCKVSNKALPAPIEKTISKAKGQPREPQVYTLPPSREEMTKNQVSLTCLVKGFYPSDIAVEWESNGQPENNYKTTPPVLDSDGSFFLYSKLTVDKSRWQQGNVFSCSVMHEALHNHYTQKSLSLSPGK
light: EAVLTQSPGTLSLSPGERATLSCQSSQSVYNNNYLSWFQQKPGQPPRLLIYGASTLTSGVPDRFSGSGSGTDFTLTISRLEPEDFAVYYCAGGYSGSSDKYAFGGGTKVEIKRTVAAPSVFIFPPSDEQLKSGTASVVCLLNNFYPREAKVQWKVDNALQSGNSQESVTEQDSKDSTYSLSSTLTLSKADYEKHKVYACEVTHQGLSSPVTKSFNRGEC
B4: the results for the “HEKBlue TGFβ blocking IC50” value in assay [1], in assay [2] and in assay [3] were 0.03 nM, 0.01 nM and more than 33 nM, respectively.

B5: h4A11.v7.14 (antibody, human IgG1, kappa, N297G, V domains shown)
VH: EQQLQESGPGLVKPSETLSLTCTVTGFSLSSYTVNWVRQPAGKGLEWIGYISYGGSAYYASWANGRFTISKDSSKNQVSLKLSSVTAADTAVYYCARHMQVGGAPTGSMAAFDPWGPGTLVTVSS
VL: EAVLTQSPGTLSLSPGERATLSCQSSQSVYNNNYLSWFQQKPGQPPRLLIYGASTLTSGVPDRFSGSGSGTDFTLTISRLEPEDFAVYYCAGGYSGSSDKYAFGGGTKVEIKR
As to B5, the “HEKBlue TGFβ blocking IC50” value in assay [1] was 0.35 nM; in assay [2] it was 0.04 nM; in assay [3] it was more than 200 nM. The “fold loss of blocking against h4A11.v7” value in assay [6] was 4 fold. The Kd in assay [4] stood at 0.0049 nM; in assay [5], 0.0055 nM.

B6: h4A11.v7.9 (antibody, human IgG1, kappa, N297G, V domains shown)
VH: EQQLQESGPGLVKPSETLSLTCTVTGFSLSSYTVNWIRQPAGKGLEWIGYISYGGSAYYASWANGRFTISKDSSKNQVSLKLSSVTAADTAVYFCARHMQVGGAPTGSMAAFDPWGPGTLVTVSS
VL: EAVLTQSPGTLSLSPGERATLSCQSSQSVYNNNYLSWFQQKPGQPPRLLIYGASTLTSGVPDRFSGSGSGTDFTLTISRLEPEDFAVYYCAGGYSGSSDKYAFGGGTKVEIKR
For the molecule B6, the entries for the “HEKBlue TGFβ blocking IC50” value in assay [1], in assay [2] and in assay [3] were 0.08 nM, 0.02 nM and more than 200 nM, respectively. Besides, the Kd in assay [4] came to 0.0049 nM; in assay [5] it was 0.0057 nM.

B7: h4A11.v7.12 (antibody, human IgG1, kappa, N297G, V domains shown)
VH: EQQLQESGPGLVKPSETLSLTCTVTGFSLSSYTVNWVRQPAGKGLEWIGYISYGGSAYYASWANGRFTISKDTSKNQVSLKLSSVTAADTAVYFCARHMQVGGAPTGSMAAFDPWGPGTLVTVSS
VL: EAVLTQSPGTLSLSPGERATLSCQSSQSVYNNNYLSWFQQKPGQPPRLLIYGASTLTSGVPDRFSGSGSGTDFTLTISRLEPEDFAVYYCAGGYSGSSDKYAFGGGTKVEIKR
B7: the results for the “HEKBlue TGFβ blocking IC50” value in assay [1], in assay [2] and in assay [3] were 0.01 nM, 0.03 nM and more than 200 nM, respectively. Moreover, the Kd worked out at 0.006 nM in assay [4] and 0.0065 nM in assay [5].

B8: h4A11.v7.15 (antibody, human IgG1, kappa, N297G)
heavy: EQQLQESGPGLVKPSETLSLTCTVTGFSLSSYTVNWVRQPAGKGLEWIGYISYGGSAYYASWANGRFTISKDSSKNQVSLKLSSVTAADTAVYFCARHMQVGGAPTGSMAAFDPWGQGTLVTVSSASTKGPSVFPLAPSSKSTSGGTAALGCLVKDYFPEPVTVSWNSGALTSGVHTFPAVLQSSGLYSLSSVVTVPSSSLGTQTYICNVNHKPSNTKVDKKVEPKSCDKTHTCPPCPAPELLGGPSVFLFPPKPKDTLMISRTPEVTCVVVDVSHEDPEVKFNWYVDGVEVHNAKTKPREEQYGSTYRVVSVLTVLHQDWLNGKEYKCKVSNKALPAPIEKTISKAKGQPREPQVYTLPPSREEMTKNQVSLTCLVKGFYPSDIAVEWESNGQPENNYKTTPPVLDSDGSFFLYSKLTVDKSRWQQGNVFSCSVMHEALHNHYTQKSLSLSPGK
light: EAVLTQSPGTLSLSPGERATLSCQSSQSVYNNNYLSWFQQKPGQPPRLLIYGASTLTSGVPDRFSGSGSGTDFTLTISRLEPEDFAVYYCAGGYSGSSDKYAFGGGTKVEIKRTVAAPSVFIFPPSDEQLKSGTASVVCLLNNFYPREAKVQWKVDNALQSGNSQESVTEQDSKDSTYSLSSTLTLSKADYEKHKVYACEVTHQGLSSPVTKSFNRGEC
For B8, the “HEKBlue TGFβ blocking IC50” value in assay [1] was 0.09 nM; in assay [2], 0.02 nM; in assay [3], more than 200 nM. Further, the values for the Kd in assay [4] and in assay [5] were 0.0047 nM and 0.0048 nM, respectively.

B9: h4A11.v7.10 (antibody, human IgG1, kappa, N297G, V domains shown)
VH: EQQLQESGPGLVKPSETLSLTCTVTGFSLSSYTVNWVRQPAGKGLEWIGYISYGGSAYYASWANGRVTISKDSSKNQVSLKLSSVTAADTAVYFCARHMQVGGAPTGSMAAFDPWGPGTLVTVSS
VL: EAVLTQSPGTLSLSPGERATLSCQSSQSVYNNNYLSWFQQKPGQPPRLLIYGASTLTSGVPDRFSGSGSGTDFTLTISRLEPEDFAVYYCAGGYSGSSDKYAFGGGTKVEIKR
As to B9, the “HEKBlue TGFβ blocking IC50” value in assay [1] is 0.02 nM; in assay [2] it was 0.02 nM; in assay [3], more than 200 nM. The Kd in assay [4] came out at 0.0056 nM; in assay [5], 0.0068 nM.

B10: h4A11.v7.4 (antibody, V domains shown)
VH: EQQLQESGPGLVKPSETLSLTCTVTGFSLSSYTVNWVRQPAGKGLEWIGYISYGGSAYYASWANGRFTISKDSSKNQVSLKLSSVTAADTAVYFCARHMQVGGAPTGSMAAFDPWGPGTLVTVSS
VL: EIVLTQSPGTLSLSPGERATLSCQSSQSVYNNNYLSWFQQKPGQPPRLLIYGASTLTSGVPDRFSGSGSGTDFTLTISRLEPEDFAVYYCAGGYSGSSDKYAFGGGTKVEIK
As to B10, the “HEKBlue TGFβ blocking IC50” value in assay [1] is 0.01 nM; in assay [2], 0.05 nM; in assay [3], more than 200 nM. For the same molecule, the Kd in assay [4] came out at 0.0064 nM; in assay [5], 0.0043 nM.

B11: h4A11.v7.6 (antibody, V domains shown)
VH: EQQLQESGPGLVKPSETLSLTCTVTGFSLSSYTVNWVRQPAGKGLEWIGYISYGGSAYYASWANGRFTISKDSSKNQVSLKLSSVTAADTAVYFCARHMQVGGAPTGSMAAFDPWGPGTLVTVSS
VL: EAVLTQSPGTLSLSPGERATLSCQSSQSVYNNNYLSWFQQKPGQAPRLLIYGASTLTSGVPDRFSGSGSGTDFTLTISRLEPEDFAVYYCAGGYSGSSDKYAFGGGTKVEIK
As for B11, the entries for the “HEKBlue TGFβ blocking IC50” value in assay [1], in assay [2] and in assay [3] were 0.01 nM, 0.01 nM and more than 200 nM, respectively. Also, the Kd in assay [4] turned out to be 0.0058 nM; in assay [5], 0.0065 nM.

B12: h4A11.v7.7 (antibody, V domains shown)
VH: EQQLQESGPGLVKPSETLSLTCTVTGFSLSSYTVNWVRQPAGKGLEWIGYISYGGSAYYASWANGRFTISKDSSKNQVSLKLSSVTAADTAVYFCARHMQVGGAPTGSMAAFDPWGPGTLVTVSS
VL: EAVLTQSPGTLSLSPGERATLSCQSSQSVYNNNYLSWFQQKPGQPPRLLIYGASTLTSGIPDRFSGSGSGTDFTLTISRLEPEDFAVYYCAGGYSGSSDKYAFGGGTKVEIK
Consider B12, for which the “HEKBlue TGFβ blocking IC50” value is 0.04 nM in assay [1], 0.04 nM in assay [2] and more than 200 nM in assay [3]. Besides, the values for the equilibrium dissociation constant (Kd) in assay [4] and in assay [5] were 0.0063 nM and 0.0061 nM, respectively.
